Laboratory results as given in publication PMC11417371, “ENL reads histone β-hydroxybutyrylation to modulate gene transcription” (Nucleic Acids Research, 2024).

Tests used:
[1] = molecular target: Probe H3K9bhb (Kbhb-installed histone H3 peptide on gold nanoparticles with photo-cross-linker-linked PEG); test: affinity purification with mass spectrometry; photoaffinity enrichment with probes H3K9bhb and H3K9, read out by parallel reaction monitoring (PRM) mass spectrometry
AF9 = molecular target: T1, AF9 (UniProt P42568 1-568); test: ITC; MicroCal PEAQ ITC, 15°C; protein at 100 μM dropped into the 1000 μM peptide, 19 drops; one set of binding sites model; details: both partners purified
T1 construct: AF9 (MLLT3), a YEATS domain-containing protein
T1 sequence (looked up): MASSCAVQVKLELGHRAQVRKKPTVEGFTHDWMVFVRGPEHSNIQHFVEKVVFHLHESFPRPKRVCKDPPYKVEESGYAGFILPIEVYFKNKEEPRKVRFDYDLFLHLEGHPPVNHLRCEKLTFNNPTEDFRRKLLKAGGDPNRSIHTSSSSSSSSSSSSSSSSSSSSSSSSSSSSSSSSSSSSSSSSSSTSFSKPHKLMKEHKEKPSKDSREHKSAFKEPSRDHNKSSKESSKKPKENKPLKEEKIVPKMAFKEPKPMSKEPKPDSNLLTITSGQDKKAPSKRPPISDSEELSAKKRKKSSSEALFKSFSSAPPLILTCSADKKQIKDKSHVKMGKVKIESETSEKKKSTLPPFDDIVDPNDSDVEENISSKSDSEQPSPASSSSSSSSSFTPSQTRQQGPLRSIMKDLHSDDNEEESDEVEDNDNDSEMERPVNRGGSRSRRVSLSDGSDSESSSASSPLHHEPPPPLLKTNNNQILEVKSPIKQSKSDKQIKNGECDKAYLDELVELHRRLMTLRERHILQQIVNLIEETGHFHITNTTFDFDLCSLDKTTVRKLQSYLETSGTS

GAS41 = molecular target: T2, GAS41 (UniProt O95619 1-227); test: as above; details: both partners purified
T2 construct: GAS41 (YEATS4), a YEATS domain-containing protein
T2 sequence (O95619 whole entry, the tested form may be a part): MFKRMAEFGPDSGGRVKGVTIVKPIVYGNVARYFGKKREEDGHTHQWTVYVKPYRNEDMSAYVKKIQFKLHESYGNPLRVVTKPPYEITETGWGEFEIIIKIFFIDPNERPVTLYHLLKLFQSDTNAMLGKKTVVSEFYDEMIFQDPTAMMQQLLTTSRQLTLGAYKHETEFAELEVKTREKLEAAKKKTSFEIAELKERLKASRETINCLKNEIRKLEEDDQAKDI

B1: ENL (endogenous) (natural protein)
chain: MDNQCTVQVRLELGHRAQLRKKPTTEGFTHDWMVFVRGPEQCDIQHFVEKVVFWLHDSFPKPRRVCKEPPYKVEESGYAGFIMPIEVHFKNKEEPRKVCFTYDLFLNLEGNPPVNHLRCEKLTFNNPTTEFRYKLLRAGGVMVMPEGADTVSRPSPDYPMLPTIPLSAFSDPKKTKPSHGSKDANKESSKTSKPHKVTKEHRERPRKDSESKSSSKELEREQAKSSKDTSRKLGEGRLPKEEKAPPPKAAFKEPKMALKETKLESTSPKGGPPPPPPPPPRASSKRPATADSPKPSAKKQKKSSSKGSRSAPGTSPRTSSSSSFSDKKPAKDKSSTRGEKVKAESEPREAKKALEVEESNSEDEASFKSESAQSSPSNSSSSSDSSSDSDFEPSQNHSQGPLRSMVEDLQSEESDEDDSSSGEEAAGKTNPGRDSRLSFSDSESDNSADSSLPSREPPPPQKPPPPNSKVSGRRSPESCSKPEKILKKGTYDKAYTDELVELHRRLMALRERNVLQQIVNLIEETGHFNVTNTTFDFDLFSLDETTVRKLQSCLEAVAT
B1 gave a fold enrichment over probe H3K9 [1] of 3.9 fold.

B2: β-hydroxybutyryl histone H3 1-17 peptide (H3K9bhb) (peptide, UniProt P68431 2-18, looked up)
peptide: ARTKQTARKSTGGKAPR
modifications: β-hydroxybutyryl-lysine at K9
notes: histone H3, residues 1-17; The text calls the ITC peptides 'histone H3K14 (1–17) peptides', the legend 'H31-17 peptides'; also called H3K9bhb peptide; source: synthetic peptide (Beijing SciLight Biotechnology, HPLC purified)
In the case of B2, the Kd (AF9) is reported as 11 µM and the Kd (GAS41) is reported as 6.7 µM.
